The source of these data is article PMC1920236 (Nucleic Acids Research, 2007).

Where a chain is given by its changes, count along the chain named. Names and notes keep the numbering of the source. Read-outs that look alike come from different tables or passages of the source.

For one data set, the target named is T1, IRF-3 WT (UniProt Q14653 1-427).
T1 sequence: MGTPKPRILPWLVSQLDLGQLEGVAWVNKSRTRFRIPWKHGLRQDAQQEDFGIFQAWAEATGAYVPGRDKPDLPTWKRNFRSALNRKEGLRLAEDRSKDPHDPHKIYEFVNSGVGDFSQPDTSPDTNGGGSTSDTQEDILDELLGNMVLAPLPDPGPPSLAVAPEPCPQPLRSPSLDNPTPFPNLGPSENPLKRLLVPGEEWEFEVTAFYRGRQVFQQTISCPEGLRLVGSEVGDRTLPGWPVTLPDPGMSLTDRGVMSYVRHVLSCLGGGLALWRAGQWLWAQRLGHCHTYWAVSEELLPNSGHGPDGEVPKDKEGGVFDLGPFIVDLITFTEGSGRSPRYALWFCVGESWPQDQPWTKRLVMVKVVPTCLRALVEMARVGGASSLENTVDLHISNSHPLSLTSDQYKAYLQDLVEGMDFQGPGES
In words: fluorescence anisotropy. For orientation: Polarisation of emitted light reports the rotation of a fluorescent probe.

In the next data set the target is T2, IRF-3 2D (UniProt Q14653 1-427, S396D;S398D).
T2 sequence: T1 sequence with S396D, S398D
Description: fluorescence anisotropy.

The target in data set [1] is T3, IRF-3 5D (UniProt Q14653 1-427, S396D;S398D;S402D;T404D;S405D).
T3 sequence: T1 sequence with S396D, S398D, S402D, T404D, S405D
In words: fluorescence anisotropy.

The data set “native gel or EMSA” deals with the molecule itself. In words: native gel or EMSA. For orientation: In EMSA bound probe runs differently from free probe, usually more slowly.
For data set [2], the target named is T3, IRF-3 5D. Description: fluorescence anisotropy. This is another data set of the same source.

A word on the Kd: it is the constant that tells how readily two partners part at equilibrium. By stoichiometry N is commonly meant a count of units in the complex or per binding partner.

B1: PRDI 13-bp (dsDNA)
DNA 1: GAGAAGTGAAAGT
DNA 2: ACTTTCACTTCTC
On to B1, for which the Kd in the data set with IRF-3 WT was 800 ± 17 nM; with IRF-3 2D it was 900 ± 15 nM; with IRF-3 5D [1], 1200 ± 20 nM.

B2: IRF-3 5D phosphomimetic mutant (S396D, S398D, S402D, T404D and S405D) (natural protein)
chain: T1 sequence with S396D, S398D, S402D, T404D, S405D
Take B2: the “stoichiometry N” value in “native gel or EMSA” is 2.

B3: PRDIII-PRDI 26-bp (dsDNA)
DNA 1: GCGAACTGAAAGGGAGAAGTGAAAGT
DNA 2: ACTTTCACTTCTCCCTTTCAGTTCGC
As for B3, the Kd stood at 5.8 ± 0.8 nM in the data set with IRF-3 5D [2], 1230 ± 15 nM with IRF-3 WT and 1300 ± 15 nM with IRF-3 2D.
